Reference: publication PMC6834639, “Molecular basis for chirality-regulated Aβ self-assembly and receptor recognition revealed by ion mobility-mass spectrometry” (Nature Communications, 2019)
Square brackets hold non-standard residues; d marks the D form. Ends that are not written are not given here.

Legend:
[1] = molecular target: T1, human serum albumin (HSA) (human, UniProt P02768 25-609); experiment: native MS; native IM-MS with collision-induced unfolding (CIU); 100 mM NH4OAc; Aβ (1–16) 15 µM, Cu2+ 20 µM, BSA/HSA 7.5 µM; 37 °C incubation; conditions: both partners purified
T1 construct: serum albumin, human; source: bought: Sigma-Aldrich

[2] = molecular target: T2, bovine serum albumin (BSA) (bovine, UniProt P02769 25-607); experiment: as above; conditions: both partners purified
T2 construct: serum albumin, bovine; source: bought: Sigma-Aldrich
T2 sequence (P02769 25-607): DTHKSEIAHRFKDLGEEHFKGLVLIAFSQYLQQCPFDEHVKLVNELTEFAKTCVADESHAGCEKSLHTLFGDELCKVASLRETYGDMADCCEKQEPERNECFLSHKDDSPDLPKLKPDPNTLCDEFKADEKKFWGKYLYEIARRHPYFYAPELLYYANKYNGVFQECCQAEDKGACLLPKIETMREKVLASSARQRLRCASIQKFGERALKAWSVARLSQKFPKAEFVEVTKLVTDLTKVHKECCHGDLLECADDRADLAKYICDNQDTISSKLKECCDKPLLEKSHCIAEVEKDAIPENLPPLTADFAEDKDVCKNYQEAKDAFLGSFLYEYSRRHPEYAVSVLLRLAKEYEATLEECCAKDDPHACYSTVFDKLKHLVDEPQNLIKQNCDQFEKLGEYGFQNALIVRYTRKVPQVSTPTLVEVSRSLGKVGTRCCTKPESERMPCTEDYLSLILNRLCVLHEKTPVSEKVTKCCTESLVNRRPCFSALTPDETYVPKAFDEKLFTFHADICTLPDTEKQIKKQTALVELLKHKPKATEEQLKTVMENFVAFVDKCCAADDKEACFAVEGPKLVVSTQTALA

[3] = molecular target: the molecule itself; experiment: native MS; IM-MS of oligomers of one Aβ fragment alone; Aβ (1–10) and Aβ (1–16) 600 µM, 10 mM NH4OAc; oligomers of many sizes seen, a printed size is the largest one
[4] = molecular target: T1, human serum albumin (HSA); experiment: native MS; native IM-MS with CIU of HSA-Aβ (1–10) complexes, charge states 15+ to 18+; conditions: both partners purified
[5] = molecular target: tetrameric transthyretin (TTR) (UniProt P02766 21-147); experiment: SPR; OpenSPR (Nicoya), TTR immobilised on a COOH chip by amine coupling; Aβ peptides injected (Aβ C-terminals 2.4-48 µM; Aβ (1–40/42) 0.2-20 µM); PBS pH 6.8 with 0.005% Tween 20; 150 s association, 400 s dissociation; 1:1 interaction model; conditions: both partners purified
[6] = molecular target: the molecule itself; experiment: native MS; IM-MS of YGGFL aggregates; mass spectrum, concentration dependence and growth curve

Row | Kd [5] | koff [5] | kon [5] | Binder | further results
1 | – | – | – | DAEFRHDSGYEVHHQK (amyloid beta residues 1-16, all L; also called wild type Aβ (1–16); source: bought: Sangon Biotech Co., Ltd. (Shanghai, China)) [WT Aβ (1–16)] | binding result [1]: binds; binding result [2]: binds; binding result [3]: binds
2 | – | – | – | DAEFRHDSGY (amyloid beta residues 1-10, all L; also called Aβ N-terminal fragment; source: bought: Sangon Biotech Co., Ltd. (Shanghai, China)) [WT Aβ (1–10)] | binding result [4]: binds
3 | 118 µM | 0.114 s⁻¹ | 1160 M⁻¹ s⁻¹ | LVFFAEDVG[dS]NKGAIIGLMV (amyloid beta residues 17-36 with D-isomerized Ser; also called single D-isomerized Aβ (17–36); source: bought: Sangon Biotech Co., Ltd. (Shanghai, China)) [dS Aβ (17–36)] | –
4 | – | – | – | YGGFL (YGGFL, used as a known model of isotropic growth) | binding result [6]: binds
5 | 149 µM | 0.132 s⁻¹ | 990 M⁻¹ s⁻¹ | LVFFAE[dD]VGSNKGAIIGLMV (amyloid beta residues 17-36 with D-isomerized Asp; also called single D-isomerized Aβ (17–36); source: bought: Sangon Biotech Co., Ltd. (Shanghai, China)) [dD Aβ (17–36)] | –
6 | 83.1 µM | 0.102 s⁻¹ | 1930 M⁻¹ s⁻¹ | LVFFAE[dD]VG[dS]NKGAIIGLMV (amyloid beta residues 17-36 with D-isomerized Asp and Ser; also called co-isomerized Aβ (17–36); source: bought: Sangon Biotech Co., Ltd. (Shanghai, China)) [dDdS Aβ (17–36)] | –
7 | 11.5 µM | 0.008 s⁻¹ | 690 M⁻¹ s⁻¹ | LVFFAEDVGSNKGAIIGLMV (amyloid beta residues 17-36, all L; also called Aβ C-terminal fragment; source: bought: Sangon Biotech Co., Ltd. (Shanghai, China)) [WT Aβ (17–36)] | –
